Test results from paper PMC10194873.

What was measured:
[1] = target: CagI N-terminal domain (CagI^N) (Helicobacter pylori strain 26695); experiment: SEC-MALS
[2] = target: CagI N-terminal domain (CagI^N) (Helicobacter pylori strain 26695); experiment: SEC-SAXS
[3] = target: CagI (untagged, residues 21 to 381) (Helicobacter pylori strain 26695); experiment: SEC-MALS
[4] = target: CagI with a C-terminal strep-tag (residues 21-381) (Helicobacter pylori strain 26695); experiment: SEC-MALS

## CagI N-terminal domain (CagI^N) (domain or fragment)
[1]
  stoichiometry N: 2
[2]
  stoichiometry N: 2

## CagI (untagged, residues 21 to 381) (natural protein)
[3]
  stoichiometry N: 2

## CagI with a C-terminal strep-tag (residues 21-381) (natural protein)
[4]
  stoichiometry N: 2
